Tests used:
p3-40 = target: T1, p3-40; test: sandwich ELISA, 1A10 capture, HRP-2G2 detection
T1 construct: also called Aβ17-40; 17-40
T1 peptide: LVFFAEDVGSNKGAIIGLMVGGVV

p3-42 = target: T2, p3-42; test: sandwich ELISA, 44A3 capture, HRP-2G2 detection
T2 construct: also called Aβ17-42; 17-42
T2 peptide: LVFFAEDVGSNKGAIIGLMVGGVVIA

B1: 2G2 antibody (antibody, V domains shown)
VH: QVQLQQPGSELVRPGASVKLSCEASGYTFTSYWIHWVKQRPGQGLEWIGNIYPGSGDTNYDERFKSKATLTVDTSSNTAYMQLISLTSDDSAVYYCTRGKNWGQGTTLTVSS
VL: DIQMNQSPSSLSASLGDTITITCHASQNINVWLSWYQQKPGNIPRLLIYKVSNLHTGVPSRFSGSGSGTGFTLTISSLQPEDIATYYCQQGQSYPLTFGGGTKLEIR
notes: Used unlabelled in the Western blot and conjugated to horseradish peroxidase (HRP) as detection antibody in the sandwich ELISAs; only the CDRs are; also called clone 2G2; 2G2 monoclonal antibody
p3-40
  binding result: binds
p3-42
  binding result: binds
